Data: the DeepSol protein solubility set

Test: soluble on expression in E. coli; label from the status in PepcDB or PDB records

Sequence | soluble on expression in E. coli
MRKNISENNGKRPGSVKSRFLVSAFAVFLVAYSQTGRSSEEVLEQYKSLFAQQQKEFEKQRQIIIEQGKEIEKLKSRLDSLITTQPTDRSPASNVAGKDGQRPPQVSSPSTPKTVVAGPVGKKNDQVQTRTVPGNLPAGPVGQAPPKQDEKPRPPEMPRLSDAVGGVLTRKGKIVVEPALEYAFTDSNRIFLDAFTFLPAIAIGLIDVRQVDQHSLMASIGARYGVTDRLEVEARVPYRARFDEQRSRPVSIGAGIDETFNASGNGLGDIEFAARYQLNSGAGGWPILVGNMRATVPTGKGPFDIKYAQAQGVPGAVFPTEVPTGSGFFSFEPSVTALYATDPAVFFANLAYNYNMGTTEKALDGSGDKFKVDPGYAVGMTFGMGFGINERSSFNIGYGHRHIFNTKINNRTLKGSQLDIGQLLLGYAFKYSQQTTLNFSIAIGTTDDAQDVRLSFRVPMTFLEHHHHHH | soluble
HHHHHHYMEQEEDWDRDLLLDPAWEKQQRKTFTAWCNSHLRKAGTQIENIEEDFRNGLKLMLLLEVISGERLPRPDKGKMRFHKIANVNKALDFIASKGVKLVSIGAEEIVDGNLKMTLGMIWTIILRFAIQDISVEETSAKEGLLLWCQRKTAPYRNVNVQNFHTSWKDGLALCALIHRHRPDLIDYAKLRKDDPIGNLNTAFEVAEKYLDIPKMLDAEDIVNTPKPDEKAIMTYVSCFYHAFAGAEQAETAA | soluble
MGSDKIHHHHHHMTISIPDTLTTDNSEKYIVSIRLRSGGLSFSGYDPSAGGSFFYRETEFDRAVSFISSLKEFFFAHEFLTWTYKRINVICVSPEYSLVPDNYWGDGKEGRLLDFSFSTLELHCLTDTLKEQQAKLVFGVDEEVYEFCSRSLLHPFFSHYMTSLLTLWTKESSASLPRQMYVVIERKRMDVACYAQGKLLFVNSYPIDQSDDIVYYILYVWKQAGLDQEKDQLLLAGESSSRMRVLERLRAYLRHVKPVEIPSEAYLLGTDVTKAPMDLISLLICE | not soluble
MPMFIVNTNVPRASVPDGFLSELTQQLAQATGKPPQYIAVHVVPDQLMAFGGSSEPCALCSLHSIGKIGGAQNRSYSKLLCGLLAERLRISPDRVYINYYDMNAANVGWNNSTFALEHHHHHH | soluble
MNTPSRTHLVIIPSYNPGPKVYETVQAARRYWNPVWVVVDGSTDGTWEGLLKLSAEDSGLVVLGMPANRGKGAAVLRGLLTSRRKGFTHALVMDSDGQHPADRIPEFMARSQEEPDAMILGVPVFDDSAPSLRVKGRRISNWWANLETLWCGIGDSLFGFGVYPIQALCVIMQDHQWMRRFDFDPEAAVRLCWAGIRPVNLPVPVYYPKPEEGGTSHFHYWRDNALLTWMHVRLMFGFLARLPILLARIVRRPEILEHHHHHH | not soluble
MGCSSQTHSSQKETTIPVTLHVEDAKGLPVEGVQVTIVKAPSSDEEPSTEIGEILGKTDKNGDIKWDTGRKGDYSVALTKGETSVTHHISLTEDKKDHAIPLVFKELEHHHHHH | soluble
MIMDLASLRAQQIELASSVIREDRLDKDPPDLIAGADVGFEQGGEVTRAAMVLLKYPSLELVEYKVARIATTMPYIPGFLSFREYPALLAAWEMLSQKPDLVFVDGHGISHPRRLGVASHFGLLVDVPTIGVAKKRLCGKFEPLSSEPGALAPLMDKGEQLAWVWRSKARCNPLFIATGHRVSVDSALAWVQRCMKGYRLPEPTRWADAVASERPAFVRYTANQPLEHHHHHH | soluble
MNIHEIRKQFPILDQKVNGKQLVYFDSAATSQKPIQVIETLERYYKEYNSNVHRGVHTLGTKATDAYEGAREKVRKFINAKSMEEIIFTCGTTTALNTVAASYGLENVKEGDEIVISYMEHHSNIIPWQQVAKKTGATLKYLPLQPDGTISIEDARQTITPNTKIVSIMYVSNVLGTINPVKEIGAIAHENGAIMVVDGAQSTPHMKVDVQDLNCDFYALSAHKMCGPTGIGVLYGKKELLNNMEPIEFGGEMIDFVDLQESTWKELPWKFEAGTPIIGNAIGLGAAIDFLEEIGLDNIEKHEHELAQYALERLSEVDGVTIYGPKHRAGLVTFNIEDVHPHDVATVLDVEGIAVRAGHHCAQPLMKWLKASSTARASFYLYNTKEEIDTFVESLIKTKEYFTNVI | not soluble
MGSDKIHHHHHHMLSTAKERQLKIVNRLKVEQFMRIIDLVELVNYSEATVKRDLVELEKEGLVRRTRGGAMIIDNKKIDLPYLMKMNERSNETSKIRIADIAKSLIRDDMVIFLDSSSTSLHLIDVLSKFDGLQIITNGVMTASMLSEFTNARVSILGGSILTKRYTVNGAKAYNDALTYNADIAFVSCRGIDYDKGATETHEGEALIKQAFRRQSSSLVLLVTEEKVGHKFMHQSLACHDIDYLITDFKLDSDVEEQFKTHQITCLY | not soluble
LDGIAELTGARVEDLAGMDVFQGCPAEGLVSLAASVQPLRAAAGQVLLRQGEPAVSFLLISSGSAEVSHVGDDGVAIIARALPGMIVGEIALLRDSPRSATVTTIEPLTGWTGGRGAFATMVHIPGVGERLLRTARQRLAAFVSPIPVRLADGTQLMLRPVLPGDRERTVHGHIQFSGETLYRRFMSARVPSPALMHYLSEVDYVDHFVWVVTDGSDPVADARFVRDETDPTVAEIAFTVADAYQGRGIGSFLIGALSVAARVDGVERFAARMLSDNVPMRTIMDRYGAVWQREDVGVITTMIDVPGPGELSLGREMVDQINRVARQVIEAVG | not soluble
MSGDYRITLEELRYISVFHSITGVTAYRCIVDEENNRLIFLVSEGEAGRAIGRGGRLIKLLREALGKNIEVVEYSSDLERIVKNLFPGVKIESINVRERNGVKQVVIKVSEDDKGAAIGKGGKNVKRARLVLSKLFGVEKVVIR | soluble
GSAPRVQEELCLVCGDRASGYHYNALTCEGCKGFFRRSVTKSAVYCCKFGRACEMDMYMRRKCQECRLKKCLAVGMRPECVVPENQCAMKRREKKAQKEKDKMTTSPSSQHGSPGIHRD | soluble
NKDNLDLAGLTSLLSEKIKEFLQEKKMQSFYQQELETVESLQSLASRPVTHSTGSDQVELKDSGTSGVAQRVFKNALQLLQEKGLVFQRDSGSDKLYYVTTKDKDLQ | soluble
MSKELTAKKRAALNRLKTVRGHLDGIVRMLESDAYCVDVMKQISAVQSSLERANRVMLHNHLETCFSTAVLDGHGQAAIEELIDAVKFTPALTGPHARLGGAAVGESATEEPMPDASNM | soluble
MSAEQFVGRWKLVESENFEDYLKEVGVGLLLRKAACAAKPTLEIKVNGNKWHVNQLSTFKNTTLEFTLGVEFDETTPDGRQFKSTITIEDGKVVHVQKRIKDSDHDSVITRWFEGEKLITTLQSGSVISRRAYIRE | not soluble
MAHHHHHHMCVRTWQKCPGLVSVKHRCIGGTLTNDGLRTEQYSHAPGPVRYFFLCLYDALLAHQQRLDQYWLNPLYQLNVHSFPFVYLYIVHFNTKIIFSFSFKANKNFFPLRLTTGKNCRKTKSTCRQPPTPNIDDRSSL | not soluble
MSLTIYVYVLDTLADWEIGYVNSELNSRRFFKKDANRVSLKTVSYSKEPIKTMGGMTIVPDCVIDDIVMSETSVLLLPGADTWNNLEHKAIIKKASELLALNATVAAICGATVALANHGLLDNRPHTSNGAGFLEMFSSSYKGQNSYINELSVWDNNLITASSAGALLWAKQIIAHLDVFESNTLESWYAYFNTGDPKHFYALMESLPDNNEGHHHHHH | soluble
MLQISHLYADYGGKPALEDINLTLESGELLVVLGPSGCGKTTLLNLIAGFVPYQHGSIQLAGKRIEGPGAERGVVFQNEGLLPWRNVQDNVAFGLQLAGIEKMQRLEIAHQMLKKVGLEGAEKRYIWQLSGGQRQRVGIARALAANPQLLLLDEPFGALDAFTRDQMQTLLLKLWQETGKQVLLITHDIEEAVFMATELVLLSSGPGRVLERLPLNFARRFVAGESSRSIKSDPQFIAMREYVLSRVFEQREAFS | soluble
MSLINLWPLLLPAAAWSGWWLANRSNSNKDAHVHNRLSREYVVGLNYLLNEQSDKAVDVFIKLLEVDSDTVETHLALGSLFRRRGEVDRAIRIHQNLIARPQLSIQQRKEALMALGQDYMSAGVFDRAERIFLEVVELGGSRDTSSLQGLLAIYQQEKAWEKALDIIKKLEISTGASFHNQAAHYYCEMASQALKINAMDRAIYCIKQAMNVDPESVRASLMNATIEIKEGRYKQAIRSLKRVPQQDAEFLTEIIEPLVLCHKELDSMPDCIHYLEQTLEKHPRASVIFVIADYLRQNKGMDIAIDFVADNLSKHPSIRGLNRLIYWHLESAHGKVREKLQMLYDITSKFLDNKPIYRCGHCGFGGKHLHWHCPSCKQWGRMKPIHGLEGDEGHHHHHH | not soluble
TPGVEKRVIWAPGGYERRTPYALVYLHGFSATSEEIRPVPDHIAQALGANLVFTRLQGHGRGDDAMAQGSASGWMRDTAEALAAGRAVGERVIVIATSTGATLAAAAALDPEMSADVAAMILVSPNFGVNDPLAFVPTLPGARYWLPRLMGDARDVTGPDADKNTYWTTRYSWSALVPMSVLVQAVVSLDFAQARVPALFWFSDQDRVVRADLTRALAGRWGGPVRVEAVTMGPGDDPSSHVIAGDIMSPGQTDIAVAGMLAWLREQGI | not soluble
MAKIGENVPLLIDKAVDFMASSQAFREYLNKTPPRDYVPSEVPSESAPIYLQRLEYYRRLYRPKEEERG | not soluble
MPFFANSDPMMSKLSQIQFADAPTLKGDKYPDVDAHRIIAPIISPIMEVFDQMKENQRARDQAEKIRKDREDHPLSTSRSLWEMFQRLQRPTTTTTEAPPLIERLFKPYIEPWQKQLDDFSKDMAGITLIPTTTTTPAPTTTTTPNFLEKSLSMFFPSLRRKPQSIPTLPPTTTPTPRLFDPEMFDRLFFKRDKRQATIAPAPKFDIFTVPPPPPLFQEWEKPILSLSNPFTLNPLMKMFTTPSPPQTLAPLPKIPEPNPYEIKKGLPEPQFKLQDPFYNPLFPSRKSKMFDFLAGGEAGRLLG | not soluble
MGSDKIHHHHHHMSRAERLIELMITINAKRSFTAGELAEEFSVSKRTILRDLQVLESIGFPLYSKVGAAGGYHVLKERILPPIAFSESEVKSIFFAYQSLEYYNDLPFEQETISVLKKFLNCIPNDIQYNIENIRRKFVFWTPDRHCSTPLLKELFNIVMNEFTIKIEYSSKQKNSVRTIVPIGLYAMNGLWYCPAYCIKSESIKEFRVDRIVKILSIENLSSKKYKVLSSIHDYLKNMEVGTDYHIKINLTDEGVKRCETEFLLARGLKILSKGGYIDMYIPKSTLNWVAEYFLTFGKNATIIEPIELKHLIKSKVLELYNHHCI | not soluble
MAPCLENVACVNLSAMPPAPPSPQPVSHKQAATLCRQGRTCALKSGSNESGGSVTSTYTSYRLISQDIGKSLERVSKQPDVARETEYYREKIGSVKSIDDFMADTRLYNYALKAHGLEDMAYAKAFIRKVLTEGASDKNAFANKLSDNRYAELAKSLDFAGLGAAATATEAAKSGVIGNYARQTLEQEAGDDNNGVRLALYFERKAPTIKSGLDFLADDALAQVFRTTFNLPDAFAAADVDKQAALIEKSINIKDLQDPEKVGKLLERFTIMWEMQNPSTTYDPLAVFGSSSGYGISPDLLISINSLKLGGKAAALEHHHHHH | soluble
MKVRAQVPTVKNATNFNMVADSKTAVGSTLENLKAAIAGETGAHAKYTAFAKAAREQGYEQIARLFEATAAAELIHIGLEYALVAEMEPGYEKPTVAAPSAYSCDLNLISGANGEIYETSDMYPAFIRKAQEEGNSKAVHVFTRAKLAESVHAERYLAAYNDIDAPDDDKFHLCPICGYIHKGEDFEKCPICFRPKDTFTAY | soluble
